Reference: patent US10260068B2, “Prophylactic agent and therapeutic agent for fibrodysplasia ossificans progressiva” (Sumitomo Dainippon Pharma Co., Ltd., priority 2014, dated 2019)
Each block holds one molecule with its values, some of them ahead of it.

Experiments:
[1] = biological target: T1, wild type ACVR1 (Homo sapiens, UniProt Q04771); assay: Luciferase reporter (BMP responsive sequence) transcription activity in gene-corrected clone derived cells; assay type: cell-based; settings: ligand 1, 10, 100 ng/mL, 16 hours
T1 construct: an iPS cell line with the ACVR1 gene mutation repaired to the normal type (wild type) by gene repair by a BAC knockin vector; endogenous in cells; host or cells: mesenchymal stem cell-like cells differentiated from the gene-corrected iPS cell clone
T1 sequence (Q04771 21-509): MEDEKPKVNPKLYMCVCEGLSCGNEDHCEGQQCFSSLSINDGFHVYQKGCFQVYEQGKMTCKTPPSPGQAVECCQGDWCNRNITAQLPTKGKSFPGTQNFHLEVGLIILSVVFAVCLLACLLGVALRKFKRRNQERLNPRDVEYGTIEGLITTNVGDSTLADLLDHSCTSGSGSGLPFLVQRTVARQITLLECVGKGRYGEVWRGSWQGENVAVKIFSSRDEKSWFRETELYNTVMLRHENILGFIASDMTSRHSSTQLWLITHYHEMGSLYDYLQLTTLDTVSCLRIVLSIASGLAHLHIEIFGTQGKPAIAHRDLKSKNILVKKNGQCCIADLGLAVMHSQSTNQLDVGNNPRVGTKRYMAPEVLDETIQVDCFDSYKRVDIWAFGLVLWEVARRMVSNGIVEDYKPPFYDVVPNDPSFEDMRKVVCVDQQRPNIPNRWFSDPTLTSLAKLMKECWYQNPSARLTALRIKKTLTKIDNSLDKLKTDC
Source text: Following the method of Yamanaka et al. (Cell, 2007, 131 (5), […]), FOP patient-derived iPS cells (hereunder also referred to as “patient-derived iPS cell line”) were established. The patient cells were confirmed to be cells having a typical FOP-associated mutation in the ACVR1 gene. The mutation is a substitution of the 206th arginine residue of the amino acid sequence of ACVR1 (the amino acid sequence listed as SEQ ID NO: 10) with a histidine residue. Next, for use as a control, an iPS cell line with the ACVR1 gene mutation repaired to the normal type (wild type) by gene repair by a BAC knockin vector (hereunder also referred to as “gene-corrected iPS cell clone” or “gene-rescued iPS cell clone”) was established.
The patient-derived iPS cell line and gene-corrected iPS cell line were cultured on the matrix of a Matrigel coated plate (trade name: Growth Factor Reduced (GFR)BD Matrigel® by Becton & Dickinson), using mTeSR1 (Stem Cell Technologies) for 2 days under feeder-free conditions. Next, using serum-free medium [F12 Nutrient Mixture (product of Gibco)/Iscove's Modified Dulbecco's Medium (IMDM) (product of Sigma-Aldrich Japan, KK.)/0.5% bovine serum albumin (BSA) (product of Sigma-Aldrich Japan, KK.)/1% Chemically Defined Lipid (CD-Lipid) (product of Gibco, trade name: Chemically Defined Lipid Concentrate)/15 μg/mL apotransferrin (product of Sigma-Aldrich Japan, KK., trade name: apo-Transferrin human)/7 μg/mL insulin (product of Wako Pure Chemical Industries, Ltd., trade name: Insulin, Human, recombinant)/0.45 mM 1-Thioglycerol (product of Sigma-Aldrich Japan, KK.)] with addition of 10 μM SB-431542 (product of Selleck Chemicals) and 1 μM CHIR99021 (product of Wako Pure Chemical Industries, Ltd.), the patient-derived iPS cell line and gene-corrected iPS cell line were further cultured for 1 week under feeder-free conditions for differentiation to neural crest cells. […]
After mixing Firefly luciferase reporter plasmid having the BMP responsive sequence in the promoter region (J. Biol. Chem., 2002, 277(7), 4883-4891) and a plasmid having a nucleic acid sequence coding for Renilla luciferase downstream from CMV promoter, as an internal standard (product of Promega Corp., trade name: phRL-CMV Vector), FuGene® HD (Promega Corp.) was used for transfection into the mesenchymal stem cell-like cells. […] Next, the luciferase activity was measured according to the protocol provided with a Dual-Glo Luciferase Assay System (product of Promega Corp.). The luminescence was detected using an EnVision Multilabel Counter (product of Perkin-Elmer). […]

[2] = tested on: FOP patient derived cells; assay: Differentiation to chondrocytes (Alcian blue, sulfated glycosaminoglycan assay) of FOP patient derived cells; assay type: cell-based, human; settings: for cartilage induction (sulfated glycosaminoglycan assay): 100 ng/mL activin A, vs untreated group
Procedure: Mesenchymal stem cell-like cells from a patient iPS cell line and a gene-corrected iPS cell clone were each prepared by the same method as Example 1. The mesenchymal stem cell-like cells were cultured for 6 days under the medium conditions used in the method of Umeda et al. (Sci. Rep., 2012, 2, 455), for differentiation to chondrocytes. During differentiation, 100 ng/mL of human activin A, 100 ng/mL of human BMP-7 or 1 ng/mL of human TGF-β3 (product of R&D Systems, Inc., trade name: Recombinant Human TGF-beta 3) was added and the effect of each factor on differentiation to chondrocytes was examined. The extent of differentiation to chondrocytes was measured with Alcian blue dye and a sulfated glycosaminoglycan assay kit (product of Biocolor, Ltd., trade name: Blyscan Glycosaminoglycan Assay Kit). In FIG. 4, the bar graph indicates the mean values for each treated group, and the error bars represent S.D.

[3] = biological target: T1, wild type ACVR1; assay: ID1 gene promoter luciferase reporter in U2OS cells with transfer of wild type ACVR1; assay type: cell-based; settings: 10 ng/mL, 20 hours
[4] = FOP patient derived cells, 100 ng/mL BMP-7 or 1 ng/mL TGF-β3, 6 days

- transcription activity via ACVR1 (firefly/Renilla luciferase activity, BMP responsive sequence) [1]: not seen
- transcription activity via ACVR1 (ID1 gene promoter luciferase) [3]: not observed
Molecule: human activin A: Recombinant Human/Mouse/Rat Activin A (R&D Systems); homodimer of inhibin βA chains
- sulfated glycosaminoglycan production in FOP patient derived cells compared to gene-corrected cells ([2]; 100 ng/mL, 6 days): 4 fold
- cartilage induction (sulfated glycosaminoglycan assay) [2, 4]: very notably enhances
- differentiation to chondrocytes (Alcian blue staining) ([2]; FOP patient derived cells, 100 ng/mL, 6 days): notably enhances

B1: BMP-7: Recombinant Human BMP-7 (R&D Systems); cytokine of the BMP family (protein)
chain: STGSKQRSQNRSKTPKNQEALRMANVAENSSSDQRQACKKHELYVSFRDLGWQDWIIAPEGYAAYYCEGECAFPLNSYMNATNHAIVQTLVHFINPETVPKPCCAPTQLNAISVLYFDDSSNVILKKYRNMVVRACGCH
- transcription activity via ACVR1 (firefly/Renilla luciferase activity, BMP responsive sequence) [1]: increased in a concentration-dependent manner
- cartilage induction effect compared to the effect exhibited by activin A on FOP patient derived cells ([2]; 100 ng/mL BMP-7 or 1 ng/mL TGF-β3, 6 days): weaker
- cartilage induction (sulfated glycosaminoglycan assay) [2, 4]: significantly enhanced
